Patent US20260159603A1 (BEAM THERAPEUTICS, published 2026)

Assays:
huCD5-BTN = target: T1, huCD5-BTN (human, UniProt P06127 25-372, limits assumed, biotinylated (BTN)); experiment: BLI in tandem, huCD5-BTN saturated with UCHT2 first; competitor UCHT2
T1 construct: Loaded onto streptavidin biosensors; also called human CD5
T1 sequence (looked up): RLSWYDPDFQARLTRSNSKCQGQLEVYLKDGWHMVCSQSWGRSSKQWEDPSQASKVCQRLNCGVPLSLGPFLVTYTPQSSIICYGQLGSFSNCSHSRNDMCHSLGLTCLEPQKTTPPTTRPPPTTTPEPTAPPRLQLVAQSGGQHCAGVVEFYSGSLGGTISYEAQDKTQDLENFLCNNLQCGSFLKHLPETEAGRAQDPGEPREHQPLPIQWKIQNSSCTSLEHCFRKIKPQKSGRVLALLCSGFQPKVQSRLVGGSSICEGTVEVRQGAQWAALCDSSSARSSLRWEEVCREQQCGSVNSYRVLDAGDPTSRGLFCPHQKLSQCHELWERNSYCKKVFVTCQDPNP

[1] = target: T2, biotinylated cynomolgus CD5-HIS (cynomolgus); experiment: BLI (Octet), biotinylated CD5-HIS on streptavidin pins, periplasmic extract, off-rate
T2 construct: Loaded onto streptavidin Octet pins; also called CynoCD5; SA-Cyno CD5

[2] = target: T3, biotinylated human CD5-HIS (human, UniProt P06127 25-372, biotinylated); experiment: as above
T3 construct: Loaded onto streptavidin Octet pins; also called huCD5; SA-human CD5; not shown: HIS tag
T3 sequence (looked up): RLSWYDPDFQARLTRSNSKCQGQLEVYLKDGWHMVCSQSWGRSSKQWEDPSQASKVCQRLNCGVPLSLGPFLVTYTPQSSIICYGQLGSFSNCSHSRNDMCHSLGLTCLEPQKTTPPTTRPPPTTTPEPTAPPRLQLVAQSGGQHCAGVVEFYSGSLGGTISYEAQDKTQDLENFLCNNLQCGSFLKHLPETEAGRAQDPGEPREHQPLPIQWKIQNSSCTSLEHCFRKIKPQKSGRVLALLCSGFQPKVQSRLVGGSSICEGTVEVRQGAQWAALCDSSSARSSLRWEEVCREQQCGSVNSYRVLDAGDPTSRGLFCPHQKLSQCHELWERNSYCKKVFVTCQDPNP

[3] = target: T2, biotinylated cynomolgus CD5-HIS; experiment: BLI (Octet), biotinylated CD5-HIS on streptavidin pins
[4] = target: T3, biotinylated human CD5-HIS; experiment: as above
[5] = target: T3, biotinylated human CD5-HIS; experiment: BLI; KD on human CD5 divided by KD on cynomolgus CD5
[6] = target: T4, human CD5 on transfected HEK293T cells (human, UniProt P06127 25-495); experiment: flow cytometry, periplasmic extract on transfected HEK293T cells
T4 construct: whole, on cells; also called huCD5; Human CD5 Cells
T4 sequence (looked up): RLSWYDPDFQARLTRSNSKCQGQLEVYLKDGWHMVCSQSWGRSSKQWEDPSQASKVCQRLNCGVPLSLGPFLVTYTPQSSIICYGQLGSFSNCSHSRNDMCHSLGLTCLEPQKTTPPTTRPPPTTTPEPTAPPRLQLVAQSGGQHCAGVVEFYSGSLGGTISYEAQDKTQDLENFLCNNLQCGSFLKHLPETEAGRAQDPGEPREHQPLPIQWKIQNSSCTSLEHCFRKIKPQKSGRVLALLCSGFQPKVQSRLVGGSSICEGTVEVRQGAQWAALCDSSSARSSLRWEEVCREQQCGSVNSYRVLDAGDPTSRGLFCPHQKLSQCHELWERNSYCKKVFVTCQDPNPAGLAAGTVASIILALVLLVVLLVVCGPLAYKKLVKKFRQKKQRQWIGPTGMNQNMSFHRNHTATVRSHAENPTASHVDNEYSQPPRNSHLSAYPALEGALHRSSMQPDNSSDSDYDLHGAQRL

[7] = target: T5, cynomolgus CD5 on transfected HEK293T cells (cynomolgus (Table 8B); rhesus macaque …); experiment: as above
T5 construct: whole, on cells; also called Cynomolgus CD5 Cells; rhesus macaque (Macaca mulatta) CD5

B1: ABTx324 VHH-Fc (Fc fusion)
chain: QVQLVESGGGLVQPGGSVRLSCATSGSIFSTNVMGWYRQAPGKEREFVALIRGGGSTHYADSVKGRFIISRENAKTTVYLQMNGLKPEDTAVYYCVIWLGSPGAMSDYWGQGTQVTVSS
notes: VHH as Fc fusion protein; order of the parts and the Fc are not described; also called anti-CD5 VHH-Fc; not shown: Fc (detected with anti-Human Fc)
- response (huCD5-BTN): 0.663 Response Units

B2: ABTx326 VHH-Fc (Fc fusion)
chain: QVQLVESGGGLVQPGGSLRLSCAASGRTFINYAAGWFRQAPGKEREFVARISRSGGRTDYADSVKGRFTISRDNAKSTVYLQMNSLRPEDTAVYYCAEATVWEFTDGADQYDYWGQGTQVTVSS
notes: as for B1
- response (huCD5-BTN): 0.0571 Response Units

B3: ABTx319 VHH-Fc (Fc fusion)
chain: QVQLVESGGGLVQPGGSLRLSCAASGFTFSMYSMSWVRQAPGKRLEWVSSISTGARDTAYADSVKGRFTISRDNADNTLYLHMNNLKPEDTAVYYCANGDLRYGPDGYDYRGQGTQVTVSS
notes: as for B1
- response (huCD5-BTN): 1.17 Response Units

B4: ABTx323 VHH-Fc (Fc fusion)
chain: QVQLQESGGGLVQAGGSLRLSCATSGITSSINVIGWYRQAPGKQRELVALVNSGGQTHYADSVKGRFTISRDNAKNTVFLQMNSLKPEDTAEYYCHGRYGIDNYWGEGTQVTVSS
notes: as for B1
- response (huCD5-BTN): 0.317 Response Units

B5: ABTx321 VHH-Fc (Fc fusion)
chain: QLQLVESGGGLVQPGESLRLSCVVSGDIFSFVGWGWYRQAPGKQREVVAQISTGGLTNYADSVKGRFAISRDNAKRTVYLQMNSLKFEDTAVYYCNVPGHPWGQGTQVTVSS
notes: as for B1
- response (huCD5-BTN): 0.0713 Response Units

B6: ABTx328 VHH-Fc (Fc fusion)
chain: QVQLVESGGGLVQPGESLRLSCVVSGDIFSFIGWGWYRQAPGKQRELVAQINTGGLTDYADSVKGRFTISRDNAKRTVYLQMNSLKFEDTAVYYCNFPGHSWGQGTQVTVSS
notes: as for B1
- response (huCD5-BTN): 0.153 Response Units

B7: ABTx320 VHH-Fc (Fc fusion)
chain: QVQLVESGGGLVQAGGSLRLSCAASGPAFSSSGMGWFRQAPGKAREFVASMDWTGGSTYYGDSVKGRFTVSRDNAKMTVHLQMNSLRPEDTAVYYCARGTSGVAAVNLRGFFSWGPGTQVTVSS
notes: as for B1
- response (huCD5-BTN): 0.325 Response Units

B8: ABTx329 VHH-Fc (Fc fusion)
chain: QLQLVESGGGLVQPGESLRLSCAASGFSFSRVGMNWYRQAPGKERELVASISSDGSRTNYAHFVKGRFTISRDNVKNMVYLQMNSLKLEDTAVYYCNVPGNSWGQGTQVTVSS
notes: as for B1
- response (huCD5-BTN): 0.24 Response Units

B9: ABTx318 VHH-Fc (Fc fusion)
chain: QVQLQESGGGSVQAGGSLRLSCAASGRAFSAYAMGWFRQAPGKEREFVAAINWNGDTALRWNGFATRYADSVKGRFTISRVIAKNTVNLQMNSLKPEDTAVYYCAADTVVSGSYYLAARAEDYEYWGQGTQVTVSS
notes: as for B1
- response (huCD5-BTN): 1.15 Response Units

B10: ABTx330 (VHH)
VHH: EVQLVESGGGLVQPGGSLRLSCAASGFPFSSSFMSWVRQAPGKGLEWVSTIYSDGSTYYADSVKGRFTISRDNAKKTAYLQMNSLKAEDTAVYYCATVTGSIRGQGTQVTVSS
notes: VHH in periplasmic extract of the phage display clone; also called clone 563; not shown: c-myc tag of the phagemid construct (detected with anti-c-myc 9E10)
- koff [1]: 0.0102 s⁻¹
- koff [2]: 0.00231 s⁻¹
- Kd [3]: 1.4 nM
- koff [3]: 0.00014 s⁻¹
- kon [3]: 110000 M⁻¹ s⁻¹
- Kd [4]: 0.65 nM
- koff [4]: 8.3e-05 s⁻¹
- kon [4]: 130000 M⁻¹ s⁻¹
- Hu/Cyno KD [5]: 0.5
- percent of cells showing binding [6]: 78.6%
- percent of cells showing binding [7]: 72%

B11: ABTx330 VHH-Fc (Fc fusion)
chain: EVQLVESGGGLVQPGGSLRLSCAASGFPFSSSFMSWVRQAPGKGLEWVSTIYSDGSTYYADSVKGRFTISRDNAKKTAYLQMNSLKAEDTAVYYCATVTGSIRGQGTQVTVSS
notes: as for B1
- response (huCD5-BTN): 0.367 Response Units

B12: ABTx315 (VHH)
VHH: QVQLVESGGGLVQAGGSLRLSCAASGRTFGTYTMGWFRQAPGREREFVAAISWSAGRTYYADSMKGRFTISRDNAKNTVYLQMNSLKPEDTAVYYCAADPWTSDSDYDRLTMYDYWGQGTQVTVSS
notes: VHH in periplasmic extract of the phage display clone; also called clone 502; not shown: c-myc tag of the phagemid construct (detected with anti-c-myc 9E10)
- koff [1]: 0.000345 s⁻¹
- koff [2]: 0.000566 s⁻¹
- Kd [3]: 0.22 nM
- koff [3]: 5.8e-05 s⁻¹
- kon [3]: 260000 M⁻¹ s⁻¹
- Kd [4]: 0.4 nM
- koff [4]: 6.3e-05 s⁻¹
- kon [4]: 160000 M⁻¹ s⁻¹
- Hu/Cyno KD [5]: 1.8
- percent of cells showing binding [6]: 86.4%
- percent of cells showing binding [7]: 79.1%

B13: ABTx315 VHH-Fc (Fc fusion)
chain: QVQLVESGGGLVQAGGSLRLSCAASGRTFGTYTMGWFRQAPGREREFVAAISWSAGRTYYADSMKGRFTISRDNAKNTVYLQMNSLKPEDTAVYYCAADPWTSDSDYDRLTMYDYWGQGTQVTVSS
notes: as for B1
- response (huCD5-BTN): 0.498 Response Units

B14: ABTx316 VHH-Fc (Fc fusion)
chain: QVQLVESGGGLVQAGGSLRLSCAASGGTVSSYAMGWFRQAPGKEREFVAVISWSGGRTYYADSVKGRFTISRDNAKNTVNLQMNSLKPEDTAVYYCAADPWTSDSDYERLTMYDYWGQGTQVTVSS
notes: as for B1
- response (huCD5-BTN): 0.394 Response Units

B15: ABTx317 (VHH)
VHH: QVQLVESGGGLVQAGASLRLSCAASGRTTYNMGWFRHAPGKDREFVAAIDLYGRATRYANSVKGRFTISRDNAKNTVYLQMNSLKPEDTAVYYCAADTSLPLGVLTKSQRMYGAWGQGTQVTVSS
notes: VHH in periplasmic extract of the phage display clone; also called clone 280; not shown: c-myc tag of the phagemid construct (detected with anti-c-myc 9E10)
- koff [1]: 0.118 s⁻¹
- koff [2]: 0.0131 s⁻¹
- Kd [3]: 2.4 nM
- koff [3]: 0.0002 s⁻¹
- kon [3]: 84000 M⁻¹ s⁻¹
- Kd [4]: 2.1 nM
- koff [4]: 0.00015 s⁻¹
- kon [4]: 71000 M⁻¹ s⁻¹
- Hu/Cyno KD [5]: 0.9
- percent of cells showing binding [6]: 82.8%
- percent of cells showing binding [7]: 79.5%

B16: ABTx317 VHH-Fc (Fc fusion)
chain: QVQLVESGGGLVQAGASLRLSCAASGRTTYNMGWFRHAPGKDREFVAAIDLYGRATRYANSVKGRFTISRDNAKNTVYLQMNSLKPEDTAVYYCAADTSLPLGVLTKSQRMYGAWGQGTQVTVSS
notes: as for B1
- response (huCD5-BTN): 1.24 Response Units

B17: ABTx331 VHH-Fc (Fc fusion)
chain: QVQLVESGGGLVQAGASLRLSCAASGRTTYNMGWFRHAPGKDREFVAAIDLYGRATRYANSVKGRFTISRDNAKNTVYLQMNSLKPEDTAVYYCAADTSLPLGVLTESQRLYGAWGQGTQVTVSS
notes: as for B1
- response (huCD5-BTN): 0.232 Response Units

B18: ABTx331 (VHH)
VHH: QVQLVESGGGLVQAGASLRLSCAASGRTTYNMGWFRHAPGKDREFVAAIDLYGRATRYANSVKGRFTISRDNAKNTVYLQMNSLKPEDTAVYYCAADTSLPLGVLTESQRLYGAWGQGTQVTVSS
notes: VHH in periplasmic extract of the phage display clone; also called clone 225; not shown: c-myc tag of the phagemid construct (detected with anti-c-myc 9E10)
- koff [1]: 0.0557 s⁻¹
- koff [2]: 0.0145 s⁻¹
- Kd [3]: 2.2 nM
- koff [3]: 0.00016 s⁻¹
- kon [3]: 71000 M⁻¹ s⁻¹
- Kd [4]: 1.3 nM
- koff [4]: 0.00012 s⁻¹
- kon [4]: 94000 M⁻¹ s⁻¹
- Hu/Cyno KD [5]: 0.6
- percent of cells showing binding [6]: 89.2%
- percent of cells showing binding [7]: 71.8%

B19: ABTx327 VHH-Fc (Fc fusion)
chain: QVQLVESGGGLVQPGGSLRLSCVASGGTFSTYGMGWFRQAPGKEREFVAVITGSGVGTQYADSVKDRFTISRENAKNTVYLQMNTLKLEDTAVYYCVSGHRPGWAVIRADAYEYWGQGTQVTVSS
notes: as for B1
- response (huCD5-BTN): 0.025 Response Units

B20: ABTx322 VHH-Fc (Fc fusion)
chain: QLQLVESGGGLVQPGGSLRLSCAASGSDFLVDATTWFRQAPGNQREFVAIMDIGGVTEYADSVKGRFTISRDHTKNTVYLQMNSLKVEDTAVYYCNTRGLWGQGTLVTVSS
notes: as for B1
- response (huCD5-BTN): -0.137 Response Units

B21: ABTx325 VHH-Fc (Fc fusion)
chain: QVQLVESGGGLVQPGGSLRLSCAASGSDASTNNMAWYRQAPGKEREFVALIRTGGSTHVADSMKGRFTISRENAKNTVYLQMNSLKPEDTAVYYCVIWTGSPGALSDYWGQGTQVTVSS
notes: as for B1
- response (huCD5-BTN): 0.396 Response Units
